Measured values reported in patent US20240391954A1, “MC4R AGONIST PEPTIDES” (The Regents of the University of Michigan, priority 2021, published 2024).
Starred links: 1 amine or outer side, 2 acyl side, 3 side chain; linkers in the order of their positions; H or OH if unused. Positions of bridges follow the written chain, without caps; N, C: chain ends. Non-standard residues stand in square brackets, D forms with d. Primed or numbered codes have the meaning given here. dTyr(4-OMe) = O-methyl-D-tyrosine (4-OMe), COc1ccc(C[C@@H](N[*:1])C(=O)[*:2])cc1; dTyr(4-OMe)″ = O-methyl-D-tyrosine, COc1ccc(C[C@@H](N[*:1])C(=O)[*:2])cc1; dPhe(4-Br) = N[C@H](Cc1ccc(Br)cc1)C(=O)O; d2Nal = N[C@H](Cc1ccc2ccccc2c1)C(=O)O; Cit = NC(=O)NCCC[C@H](N)C(=O)O; Aib = CC(C)(N)C(=O)O

How the values were obtained:
Experiment in all cases: cell-based or functional assay
[1] = target: T1, human MC4R receptor (human, UniProt P32245 1-332)
[2] = target: human MC3R (human, UniProt P41968 1-323)
[3] = target: T1, human MC4R receptor; remark: listed apart in the source

T1 sequence (P32245 whole entry): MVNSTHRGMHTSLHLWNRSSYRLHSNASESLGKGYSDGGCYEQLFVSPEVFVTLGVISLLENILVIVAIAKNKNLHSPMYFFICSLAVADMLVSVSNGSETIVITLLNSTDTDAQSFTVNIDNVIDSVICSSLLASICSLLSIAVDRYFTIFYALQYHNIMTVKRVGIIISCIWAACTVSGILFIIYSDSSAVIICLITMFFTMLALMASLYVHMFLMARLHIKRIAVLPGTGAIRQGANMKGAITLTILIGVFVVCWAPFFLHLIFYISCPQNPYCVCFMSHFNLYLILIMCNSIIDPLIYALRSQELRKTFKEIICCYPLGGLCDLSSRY
human MC3R, sequence (P41968 whole entry): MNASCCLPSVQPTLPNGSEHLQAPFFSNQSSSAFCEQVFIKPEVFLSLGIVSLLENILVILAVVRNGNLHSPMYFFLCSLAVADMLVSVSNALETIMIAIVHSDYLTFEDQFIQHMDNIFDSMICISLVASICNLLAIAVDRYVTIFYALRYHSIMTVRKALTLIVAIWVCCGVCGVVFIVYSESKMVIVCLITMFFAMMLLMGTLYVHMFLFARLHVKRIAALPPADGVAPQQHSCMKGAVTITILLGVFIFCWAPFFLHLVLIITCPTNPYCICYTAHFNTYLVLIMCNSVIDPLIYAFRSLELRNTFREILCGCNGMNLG

Binder	MC4R selectivity vs MC1R [1]	MC4R selectivity vs MC3R [1]	% max activation [2] [%]	cAMP EC50 [2] [nM]	% max activation [3] [%]	cAMP EC50 [3] [nM]
Ac-RC[dA]R[dF][dR][dW]C-NH2 (disulfide 2-8; SMILES CC(=O)N[C@@H](CCCNC(=N)N)C(=O)N[C@H]1CSSC[C@@H](C(N)=O)NC(=O)[C@@H](Cc2c[nH]c3ccccc23)NC(=O)[C@@H](CCCNC(=N)N)NC(=O)[C@@H](Cc2ccccc2)NC(=O)[C@H](CCCNC(=N)N)NC(=O)[C@@H](C)NC1=O) [CTX-1283]	0.03	0.12	7.8	719	55	5860
Ac-CGR[dTyr(4-OMe)]RFC-NH2 (disulfide 1-7; SMILES COc1ccc(C[C@H]2NC(=O)[C@H](CCCNC(=N)N)NC(=O)CNC(=O)[C@@H](NC(C)=O)CSSC[C@@H](C(N)=O)NC(=O)[C@H](Cc3ccccc3)NC(=O)[C@H](CCCNC(=N)N)NC2=O)cc1) [CTX-1641]	0.28	1.18	22	52	104	44
Ac-RC[dA]P[dPhe(4-Br)]RWC-NH2 (disulfide 2-8; SMILES CC(=O)N[C@@H](CCCNC(=N)N)C(=O)N[C@H]1CSSC[C@@H](C(N)=O)NC(=O)[C@H](Cc2c[nH]c3ccccc23)NC(=O)[C@H](CCCNC(=N)N)NC(=O)[C@@H](Cc2ccc(Br)cc2)NC(=O)[C@@H]2CCCN2C(=O)[C@@H](C)NC1=O) [CTX-2204]		0.19	0.2	11	13	58
Ac-RC[dA]R[dPhe(4-Br)]RWC-NH2 (disulfide 2-8) [CTX-2205]	0.2	2.12	13	18	88	8

Second part, the binder after the results:

MC4R selectivity vs MC1R [1]	MC4R selectivity vs MC3R [1]	% max activation [2] [%]	cAMP EC50 [2] [nM]	% max activation [3] [%]	cAMP EC50 [3] [nM]	Binder
3.72	3.09	27	10	100	3.4	Ac-CGR[dPhe(4-Br)]RFC-NH2 (disulfide 1-7) [CTX-1640]
> 70	> 70		> 10000	58	142	Ac-RC[Aib][Cit][dTyr(4-OMe)″]R[dW]C-NH2 (disulfide 2-8) [CTX-1600]
	2.45	1	29	1.4	12	Ac-RC[dA]P[d2Nal]RWC-NH2 (disulfide 2-8; SMILES CC(=O)N[C@@H](CCCNC(=N)N)C(=O)N[C@H]1CSSC[C@@H](C(N)=O)NC(=O)[C@H](Cc2c[nH]c3ccccc23)NC(=O)[C@H](CCCNC(=N)N)NC(=O)[C@@H](Cc2ccc3ccccc3c2)NC(=O)[C@@H]2CCCN2C(=O)[C@@H](C)NC1=O) [CTX-2203]
